Assay results reported in US20150258192A1, “COMPOSITIONS AND METHODS FOR PREVENTING OR TREATING CHRONIC LUNG ALLOGRAFT DYSFUNCTION (CLAD) AND IDIOPATHIC PULMONARY FIBROSIS (IPF)” (priority 2014, published 2015).
No end group written: not given here.

Molecular target: Pim-2(h) (Homo sapiens, UniProt Q9P1W9)
Experiment: Kinase Profiling Assay
Assay type: biochemical
Settings: peptide 100 μM
How it was run: (§1)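 Scintillation counting quantifies radiolabeled, positively charged substrate retained on a negatively charged filter after kinase reaction with labeled ATP; inhibitor peptide present.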

Pim-2(h), sequence (Q9P1W9 whole entry): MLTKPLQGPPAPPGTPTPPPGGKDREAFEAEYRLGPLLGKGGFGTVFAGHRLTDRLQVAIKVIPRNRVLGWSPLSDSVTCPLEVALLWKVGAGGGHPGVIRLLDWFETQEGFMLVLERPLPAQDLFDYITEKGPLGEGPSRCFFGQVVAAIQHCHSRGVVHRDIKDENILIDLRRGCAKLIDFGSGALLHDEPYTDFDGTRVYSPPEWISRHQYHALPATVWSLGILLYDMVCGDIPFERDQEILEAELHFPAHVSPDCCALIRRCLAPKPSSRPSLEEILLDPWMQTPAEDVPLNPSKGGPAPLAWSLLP

Row | Sequence | % activity [%]
1 | FAKLAARLYRKALARQLGVAA [MMI-0300] | 76
2 | HRRIKAWLKKIKALARQLGVAA (Mammal) [MMI-0500] | 46
3 | KAFAKLAARLYRKALARQLGVAA [MMI-0400] | 92
4 | YARAAARQARAKALNRQLGVA (Mammal) [MMI-0200] | 74

Molecular target: cKit(V560G)(h) (Homo sapiens, UniProt P10721, V560G)
Experiment: Kinase Profiling Assay
Assay type: biochemical
Settings: peptide 100 μM
How it was run: as §1

Row | Sequence | % activity [%]
5 | HRRIKAWLKKIKALARQLGVAA (Mammal) [MMI-0500] | 198
6 | KAFAKLAARLYRKALARQLGVAA [MMI-0400] | 124
7 | YARAAARQARAKALARQLGVAA [MMI-0100] | 94

Molecular target: PASK(h) (Homo sapiens, UniProt Q96RG2)
Experiment: Kinase Profiling Assay
Assay type: biochemical
Settings: peptide 100 μM
How it was run: as §1

PASK(h), sequence (Q96RG2 whole entry): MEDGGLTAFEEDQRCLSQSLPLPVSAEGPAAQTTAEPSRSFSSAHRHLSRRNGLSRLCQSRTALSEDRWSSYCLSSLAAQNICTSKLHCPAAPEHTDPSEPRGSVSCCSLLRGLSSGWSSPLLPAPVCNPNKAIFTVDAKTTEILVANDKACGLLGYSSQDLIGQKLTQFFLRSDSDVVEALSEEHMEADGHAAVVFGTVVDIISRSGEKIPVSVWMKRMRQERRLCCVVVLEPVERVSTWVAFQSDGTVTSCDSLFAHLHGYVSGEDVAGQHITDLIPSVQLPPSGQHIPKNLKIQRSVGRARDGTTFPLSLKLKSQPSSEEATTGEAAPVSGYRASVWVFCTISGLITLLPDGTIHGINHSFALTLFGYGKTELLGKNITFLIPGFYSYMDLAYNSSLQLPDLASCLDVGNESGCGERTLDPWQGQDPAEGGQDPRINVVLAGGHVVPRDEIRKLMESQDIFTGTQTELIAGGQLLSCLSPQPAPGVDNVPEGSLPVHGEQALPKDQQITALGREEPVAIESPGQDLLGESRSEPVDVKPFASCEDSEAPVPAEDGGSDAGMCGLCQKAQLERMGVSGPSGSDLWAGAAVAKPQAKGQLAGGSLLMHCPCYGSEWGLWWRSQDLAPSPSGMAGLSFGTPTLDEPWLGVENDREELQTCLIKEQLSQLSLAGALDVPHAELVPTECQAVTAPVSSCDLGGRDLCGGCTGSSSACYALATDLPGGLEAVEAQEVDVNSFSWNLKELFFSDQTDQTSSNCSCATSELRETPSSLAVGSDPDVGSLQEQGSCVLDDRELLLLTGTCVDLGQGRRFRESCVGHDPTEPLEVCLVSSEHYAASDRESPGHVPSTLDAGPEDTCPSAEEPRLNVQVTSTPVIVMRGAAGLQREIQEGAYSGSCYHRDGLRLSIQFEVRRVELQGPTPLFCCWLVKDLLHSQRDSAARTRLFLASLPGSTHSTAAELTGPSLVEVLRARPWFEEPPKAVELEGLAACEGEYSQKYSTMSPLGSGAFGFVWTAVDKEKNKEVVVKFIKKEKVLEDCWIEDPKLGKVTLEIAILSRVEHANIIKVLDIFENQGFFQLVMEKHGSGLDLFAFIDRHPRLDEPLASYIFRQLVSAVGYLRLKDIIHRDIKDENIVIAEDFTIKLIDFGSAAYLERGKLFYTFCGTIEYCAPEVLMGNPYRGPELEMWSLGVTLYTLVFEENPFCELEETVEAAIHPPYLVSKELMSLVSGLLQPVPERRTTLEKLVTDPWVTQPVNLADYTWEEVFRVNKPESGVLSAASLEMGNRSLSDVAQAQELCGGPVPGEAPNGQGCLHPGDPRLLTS

Row | Sequence | % activity [%]
8 | FAKLAARLYRKALARQLGVAA [MMI-0300] | 29
9 | HRRIKAWLKKIKALARQLGVAA (Mammal) [MMI-0500] | 9
10 | KAFAKLAARLYRKALARQLGVAA [MMI-0400] | 28
11 | YARAAARQARAKALARQLGVAA [MMI-0100] | 81
12 | YARAAARQARAKALNRQLGVA (Mammal) [MMI-0200] | 60

Molecular target: T1, STK33(h) (Homo sapiens, UniProt Q9BYT3)
T1 construct: purchased Millipore
Experiment: Kinase Profiling Assay
Assay type: biochemical
Settings: peptide 100 μM
How it was run: as §1

T1 sequence (Q9BYT3 whole entry): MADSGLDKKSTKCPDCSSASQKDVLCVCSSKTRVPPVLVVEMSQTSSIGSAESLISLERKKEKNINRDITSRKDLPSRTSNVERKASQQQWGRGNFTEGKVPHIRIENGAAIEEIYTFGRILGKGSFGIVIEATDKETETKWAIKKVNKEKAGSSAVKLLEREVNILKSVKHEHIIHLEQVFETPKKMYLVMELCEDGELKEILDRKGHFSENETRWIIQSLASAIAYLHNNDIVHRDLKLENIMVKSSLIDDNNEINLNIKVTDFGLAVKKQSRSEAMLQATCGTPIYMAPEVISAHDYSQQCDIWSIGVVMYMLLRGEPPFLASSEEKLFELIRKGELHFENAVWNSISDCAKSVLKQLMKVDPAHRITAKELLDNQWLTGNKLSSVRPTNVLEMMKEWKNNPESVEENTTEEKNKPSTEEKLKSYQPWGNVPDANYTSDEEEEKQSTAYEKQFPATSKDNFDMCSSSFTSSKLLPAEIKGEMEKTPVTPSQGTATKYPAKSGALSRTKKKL

Row | Sequence | % activity [%]
13 | FAKLAARLYRKALARQLGVAA [MMI-0300] | 45
14 | HRRIKAWLKKIKALARQLGVAA (Mammal) [MMI-0500] | 16
15 | KAFAKLAARLYRKALARQLGVAA [MMI-0400] | 52
16 | YARAAARQARAKALARQLGVAA [MMI-0100] | 99
17 | YARAAARQARAKALNRQLGVA (Mammal) [MMI-0200] | 98

Molecular target: T2, ULK2(h) (Homo sapiens, UniProt Q8IYT8)
T2 sequence (Q8IYT8 1-1036): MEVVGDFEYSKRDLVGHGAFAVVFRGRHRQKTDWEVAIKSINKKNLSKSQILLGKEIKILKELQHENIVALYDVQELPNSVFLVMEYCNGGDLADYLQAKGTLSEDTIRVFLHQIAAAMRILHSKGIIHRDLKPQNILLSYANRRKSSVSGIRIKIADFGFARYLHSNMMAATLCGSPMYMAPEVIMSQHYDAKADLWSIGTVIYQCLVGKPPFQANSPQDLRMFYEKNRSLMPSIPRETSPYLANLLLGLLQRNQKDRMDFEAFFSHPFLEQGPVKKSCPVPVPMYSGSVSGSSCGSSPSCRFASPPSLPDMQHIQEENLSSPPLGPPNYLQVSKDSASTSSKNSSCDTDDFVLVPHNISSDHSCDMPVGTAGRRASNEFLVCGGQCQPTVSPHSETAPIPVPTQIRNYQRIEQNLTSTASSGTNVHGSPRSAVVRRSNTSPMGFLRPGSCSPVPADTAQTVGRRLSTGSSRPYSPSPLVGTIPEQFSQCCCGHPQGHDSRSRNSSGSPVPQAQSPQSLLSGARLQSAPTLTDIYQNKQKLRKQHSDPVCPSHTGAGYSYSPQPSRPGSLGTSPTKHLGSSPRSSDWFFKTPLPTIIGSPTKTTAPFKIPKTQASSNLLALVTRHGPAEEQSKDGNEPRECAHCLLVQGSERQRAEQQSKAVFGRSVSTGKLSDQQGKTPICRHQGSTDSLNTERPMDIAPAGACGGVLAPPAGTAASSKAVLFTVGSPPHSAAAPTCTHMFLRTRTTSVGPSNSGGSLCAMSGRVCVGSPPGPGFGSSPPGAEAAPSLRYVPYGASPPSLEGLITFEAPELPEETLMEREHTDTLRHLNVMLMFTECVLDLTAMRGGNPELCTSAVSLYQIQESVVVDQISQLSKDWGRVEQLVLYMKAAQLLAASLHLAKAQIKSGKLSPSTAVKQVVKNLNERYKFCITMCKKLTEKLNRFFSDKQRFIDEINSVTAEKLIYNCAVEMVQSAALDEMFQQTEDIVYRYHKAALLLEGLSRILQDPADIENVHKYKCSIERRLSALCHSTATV
Experiment: Kinase Profiling Assay
Assay type: biochemical
Settings: peptide 100 μM
How it was run: as §1

Row | Sequence | % activity [%]
18 | FAKLAARLYRKALARQLGVAA [MMI-0300] | 122
19 | HRRIKAWLKKIKALARQLGVAA (Mammal) [MMI-0500] | 124
20 | KAFAKLAARLYRKALARQLGVAA [MMI-0400] | 131
21 | YARAAARQARAKALARQLGVAA [MMI-0100] | 123
22 | YARAAARQARAKALNRQLGVA (Mammal) [MMI-0200] | 132

Molecular target: T3, TAO3(h) (Homo sapiens, UniProt Q9H2K8)
T3 construct: purchased Millipore
T3 sequence (Q9H2K8 1-898): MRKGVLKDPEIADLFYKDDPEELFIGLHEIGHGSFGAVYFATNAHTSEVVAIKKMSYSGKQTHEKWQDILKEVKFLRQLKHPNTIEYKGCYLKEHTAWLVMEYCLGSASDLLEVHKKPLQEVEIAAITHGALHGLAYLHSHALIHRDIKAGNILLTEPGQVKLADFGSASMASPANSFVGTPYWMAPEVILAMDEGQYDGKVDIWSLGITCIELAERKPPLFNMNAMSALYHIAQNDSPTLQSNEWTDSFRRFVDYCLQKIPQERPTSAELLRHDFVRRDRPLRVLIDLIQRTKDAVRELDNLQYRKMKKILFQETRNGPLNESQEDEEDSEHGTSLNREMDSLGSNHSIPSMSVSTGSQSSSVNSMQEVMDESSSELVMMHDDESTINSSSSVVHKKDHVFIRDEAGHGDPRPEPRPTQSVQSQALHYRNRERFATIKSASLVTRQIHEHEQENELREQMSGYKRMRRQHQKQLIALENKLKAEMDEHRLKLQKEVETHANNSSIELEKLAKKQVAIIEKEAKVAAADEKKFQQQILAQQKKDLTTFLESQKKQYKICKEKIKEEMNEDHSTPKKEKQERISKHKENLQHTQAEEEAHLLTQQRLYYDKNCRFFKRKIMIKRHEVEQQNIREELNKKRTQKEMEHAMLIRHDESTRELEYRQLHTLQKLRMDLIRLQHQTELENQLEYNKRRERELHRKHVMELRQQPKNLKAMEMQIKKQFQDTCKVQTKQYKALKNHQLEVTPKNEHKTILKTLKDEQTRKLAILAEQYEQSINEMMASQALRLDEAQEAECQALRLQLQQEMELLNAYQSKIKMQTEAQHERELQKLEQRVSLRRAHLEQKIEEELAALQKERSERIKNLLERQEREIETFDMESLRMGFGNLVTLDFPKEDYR
Experiment: Kinase Profiling Assay
Assay type: biochemical
Settings: peptide 100 μM
How it was run: as §1

Row | Sequence | % activity [%]
23 | FAKLAARLYRKALARQLGVAA [MMI-0300] | 77
24 | HRRIKAWLKKIKALARQLGVAA (Mammal) [MMI-0500] | 12
25 | KAFAKLAARLYRKALARQLGVAA [MMI-0400] | 67
26 | YARAAARQARAKALARQLGVAA [MMI-0100] | 45
